Substrate: O=c1ccn([C@@H]2O[C@H](COP(=O)(O)OP(=O)(O)O[C@H]3O[C@@H]([C@H](O)CO)[C@H](O)[C@H]3O)[C@@H](O)[C@H]2O)c(=O)[nH]1
Experiment: purified protein
[1] = 25 mM HEPES, 125 mM NaCl, 20 mM dithionite, pH 7.5, 37 °C

Row | Protein | Km (pH 7.5, 37.0 °C) | kcat/Km (pH 7.5, 37.0 °C) | Km [1] | kcat [1] | kcat/Km [1]
1 | MtUGM (Mycobacterium tuberculosis H37Rv) (protein) MQPMTARFDLFVVGSGFFGLTIAERVATQLDKRVLVLERRPHIGGNAYSEAEPQTGIEVHKYGAHLFHTSNKRVWDYVRQFTDFTDYRHRVFAMHNGQAYQFPMGLGLVSQFFGKYFTPEQARQLIAEQAAEIDTADAQNLEEKAISLIGRPLYEAFVKGYTAKQWQTDPKELPAANITRLPVRYTFDNRYFSDTYEGLPTDGYTAWLQNMAADHRIEVRLNTDWFDVRGQLRPGSPAAPVVYTGPLDRYFDYAEGRLGWRTLDFEVEVLPIGDFQGTAVMNYNDLDVPYTRIHEFRHFHPERDYPTDKTVIMREYSRFAEDDDEPYYPINTEADRALLATYRARAKSETASSKVLFGGRLGTYQYLDMHMAIASALNMYDNVLAPHLRDGVPLLQDGA | 78 ± 16 µM | 910000 ± 150000 M⁻¹ s⁻¹ |  |  | 
2 | AfUGM (wild-type) (Aspergillus fumigatus) (protein) MTHPDISVDVLVIGAGPTGLGAAKRLNQIDGPSWMIVDSNETPGGLASTDVTPEGFLYDVGGHVIFSHYKYFDDCLDEALPKEDDWYTHQRISYVRCQGQWVPYPFQNNISMLPKEEQVKCIDGMIDAALEARVANTKPKTFDEWIVRMMGTGIADLFMRPYNFKVWAVPTTKMQCAWLGERVAAPNLKAVTTNVILGKTAGNWGPNATFRFPARGGTGGIWIAVANTLPKEKTRFGEKGKVTKVNANNKTVTLQDGTTIGYKKLVSTMAVDFLAEAMNDQELVGLTKQLFYSSTHVIGVGVRGSRPERIGDKCWLYFPEDNCPFYRATIFSNYSPYNQPEASKKLPTMQLADGSRPQSTEAKEGPYWSIMLEVSESSMKPVNQETILADCIQGLVNTEMLKPTDEIVSTYHRRFDHGYPTPTLEREGALTQILPKLQDKDIWSRGRFGSWRYEVGNQDHSFMLGVEAVDNIVNGAVELTLNYPDFVNGRQNTERRLVDGAQVFAKSKAQ |  |  | 110 ± 15 µM | 72 ± 4 s⁻¹ | 650000 ± 90000 M⁻¹ s⁻¹

Source: article PMC4270374
